From patent publication US20230227520A1 (MAX PLANCK GESELLSCHAFT ZUR F RDERUNG DER WISSENSCHAFTEN E V, published 2023)
Changes are numbered by the printed parent chain. Where two headings read alike, the source gives them in different places.

T1: G-CSFR on NFS-60 cells (murine myeloblastic cell line) (mouse, UniProt P40223 26-837)
T1 sequence (looked up): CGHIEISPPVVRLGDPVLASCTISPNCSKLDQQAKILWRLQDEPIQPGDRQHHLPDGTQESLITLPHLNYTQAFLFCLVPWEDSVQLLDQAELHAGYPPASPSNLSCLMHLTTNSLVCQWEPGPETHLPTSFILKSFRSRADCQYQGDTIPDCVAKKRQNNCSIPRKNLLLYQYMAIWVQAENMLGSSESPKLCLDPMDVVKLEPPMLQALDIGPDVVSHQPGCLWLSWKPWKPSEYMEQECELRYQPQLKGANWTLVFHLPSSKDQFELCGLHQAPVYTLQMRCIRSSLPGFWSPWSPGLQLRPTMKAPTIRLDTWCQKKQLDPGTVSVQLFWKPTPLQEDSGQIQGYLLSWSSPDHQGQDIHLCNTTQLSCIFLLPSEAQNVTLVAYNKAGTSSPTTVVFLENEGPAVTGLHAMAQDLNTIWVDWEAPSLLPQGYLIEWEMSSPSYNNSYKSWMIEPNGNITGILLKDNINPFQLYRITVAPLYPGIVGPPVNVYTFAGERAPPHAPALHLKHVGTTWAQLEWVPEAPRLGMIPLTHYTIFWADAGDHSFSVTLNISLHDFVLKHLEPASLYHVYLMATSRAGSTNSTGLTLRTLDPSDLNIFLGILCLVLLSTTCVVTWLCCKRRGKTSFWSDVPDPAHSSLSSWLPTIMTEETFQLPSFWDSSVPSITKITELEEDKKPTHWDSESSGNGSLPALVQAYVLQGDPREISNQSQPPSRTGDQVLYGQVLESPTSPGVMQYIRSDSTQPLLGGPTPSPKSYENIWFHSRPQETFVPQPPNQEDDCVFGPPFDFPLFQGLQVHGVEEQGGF

T2: G-CSF Receptor (G-CSFR) (R&D systems 381-GR-050/CF), recombinant human (human, UniProt Q99062 25-627, limits assumed)
T2 construct: Bought protein, amine-coupled to a CM5 chip; also called rhG-CSFR; human G-CSF receptor
T2 sequence (looked up): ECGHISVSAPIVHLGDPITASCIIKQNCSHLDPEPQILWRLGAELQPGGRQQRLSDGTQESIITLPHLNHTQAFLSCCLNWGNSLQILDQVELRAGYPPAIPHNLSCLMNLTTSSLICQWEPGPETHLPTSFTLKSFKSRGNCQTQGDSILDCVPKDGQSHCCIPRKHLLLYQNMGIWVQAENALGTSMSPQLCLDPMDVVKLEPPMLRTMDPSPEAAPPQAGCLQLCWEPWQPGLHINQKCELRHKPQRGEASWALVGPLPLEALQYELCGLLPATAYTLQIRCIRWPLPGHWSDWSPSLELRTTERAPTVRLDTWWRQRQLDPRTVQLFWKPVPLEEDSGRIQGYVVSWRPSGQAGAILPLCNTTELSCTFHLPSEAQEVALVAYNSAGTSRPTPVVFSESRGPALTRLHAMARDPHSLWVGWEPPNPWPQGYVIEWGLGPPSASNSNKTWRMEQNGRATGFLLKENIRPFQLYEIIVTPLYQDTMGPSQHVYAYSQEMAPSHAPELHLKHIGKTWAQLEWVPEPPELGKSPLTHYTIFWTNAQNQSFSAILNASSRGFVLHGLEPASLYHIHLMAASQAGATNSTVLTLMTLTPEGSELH

B1: sohair2_15r (designed binder)
chain: MTSDYIIEQIQRKQEEARLKVEEQERKLEAVKEASKRGVSSDQLLNLILDLADIITTLIQIIEESNEAIKELIKNQGGGGSGGGGSGGGGSDYIIEQIQRKQEEARLKVEEQERKLEAVKEASKRGVSSDQLLNLILDLADIITTLIQIIEESNEAIKELIKNQ
B2: Boskar_2 (designed binder)
chain: AALAAELAEIMKGLQEYQARLKSLEGISPELGPALDALRLDMADFATTMAQMMEENPSDLPQSFLLKALEQIRKIQADAAALREKLAATYPNSQRAAAAVEIAAQLEAFLEKAYQILRHLAAA
B3: Moevan_t2 (designed binder)
chain: EAAAAARDESAYLKLQEQMRKIDADAAALSETRTIEELDTFKLDVADFVTTVVQLAEELEHRFGRNRRGRTEIYKIVKEVDRKLLDLTDAVLAKEKKGEDILNMVAEIKALLINIYKGGGGSSGGGGSSGGGGSSGGGGSSEAAAAARDESAYLKLQEQMRKIDADAAALSETRTIEELDTFKLDVADFVTTVVQLAEELEHRFGRNRRGRTEIYKIVKEVDRKLLDLTDAVLAKEKKGEDILNMVAEIKALLINIYK
notes: Tandem fusion of two Moevan copies joined by a 24 amino acid GS linker
B4: Boskar_1 (designed binder)
chain: AALAAELAEIYKGLAEYQARLQSLEGISPELGPALDALRLDVADFATTLAQAMEEKKTNLPQSFLLKALEQIRKIQADAAALREKLAATYTGTDRAAAAVEIAAQLEAFLEKAYEILRHLAAA
B5: Sohair (designed binder)
chain: MTSDYIIEQIQRKQEEARLKVEEMERKLEAVKEASKRGVSSDQLLNLILDLADIITTLIQIIEESNEAIKELIKNQKGPTSDYIIEQIQRDQEEARKKVEEAEERLERVKEASKRGVSSDQLLDLIRELAEIIEELIRIIRRSNEAIKELIKNQ
B6: Disohair_1 (designed binder)
chain: MTSDYIIEQIQRKQEEARLKVEEMERKLEEVKEASKRGVSSDQLLNLILDLADIITTLIQIIEESNEAIKELIKNQ
B7: Disohair_2 (designed binder)
chain: B6 chain with M24Q, E30A
notes: Expressed with an N-terminal hexa-His-tag and thrombin site
B8: boskar4_t2 (designed binder)
chain: AALAAALAEIYKGLAEYQARLKSLEGISPELGPALDALRLDMADFATTMAQAMEEGLDSLPQSFLLKALEQIRKIQADAAALREKLAATYKGNDRAAAAVEIAAQLEAFLEKAYQILRHLAAAGGGGSSGGGGSSGGGGSSGGGGSSAALAAALAEIYKGLAEYQARLKSLEGISPELGPALDALRLDMADFATTMAQAMEEGLDSLPQSFLLKALEQIRKIQADAAALREKLAATYKGNDRAAAAVEIAAQLEAFLEKAYQILRHLAAA
B9: bika1 (designed binder)
chain: SKEVLEQSLFLKLDEQVRKLLADIHAIKIDRITGNMDKQKLDTAYLDVADIETTLYQLIEVSH
B10: bika2 (designed binder)
chain: B9 chain with A44L
B11: boskar4_15rl (designed binder)
chain: AALAAALAEIYKGLAEYQARLKSLEGISPELGPALDALRLDMADFATTMAQAMEGGGGSGGGGSGGGGSQSFLLKALEQIRKIQADAAALREKLAATYKGNDRAAAAVEIAAQLEAFLEKAYQILRHLAAA
B12: moevan_st2 (designed binder)
chain: EAAAAARDESAYLKLQEQMRKIDADAAALSETRTIEELDTFKLDVADFVTTVVQLAEELEHRFGRNRRGRTEIYKIVKEVDRKLLDLTDAVLAKEKKGEDILNMVAEIKALLINIYKGGGGSSEAAAAARDESAYLKLQEQMRKIDADAAALSETRTIEELDTFKLDVADFVTTVVQLAEELEHRFGRNRRGRTEIYKIVKEVDRKLLDLTDAVLAKEKKGEDILNMVAEIKALLINIYK
B13: boskar4_st2 (designed binder)
chain: AALAAALAEIYKGLAEYQARLKSLEGISPELGPALDALRLDMADFATTMAQAMEEGLDSLPQSFLLKALEQIRKIQADAAALREKLAATYKGNDRAAAAVEIAAQLEAFLEKAYQILRHLAAAGGGGSSAALAAALAEIYKGLAEYQARLKSLEGISPELGPALDALRLDMADFATTMAQAMEEGLDSLPQSFLLKALEQIRKIQADAAALREKLAATYKGNDRAAAAVEIAAQLEAFLEKAYQILRHLAAA

Tests used:
[1] = molecular target: T1, G-CSFR on NFS-60 cells (murine …); test: cell-based or functional assay
[2] = molecular target: T1, G-CSFR on NFS-60 cells (murine …); test: cell-based or functional assay; remark: listed apart in the source
[3] = molecular target: T2, G-CSF Receptor (G-CSFR) (R&D systems …); test: SPR, Biacore X100 single-cycle kinetics, G-CSFR amine-coupled on CM5, 1:1 binding model
Experimental: To test whether the grafted epitope residues mediate binding of the designs to the G-CSF receptor, the inventors also performed SPR measurements for the Moevan and diSohair2 initial design templates (Moevan_control and diSohair_control, respectively), and no binding was observed (FIG. 20C,F).
Single-cycle kinetics experiments were performed on a Biacore X100 system (GE Healthcare Life Sciences). G-CSF Receptor (G-CSFR) (R&D systems 381-GR-050/CF) was diluted to 50 μg/ml in 10 mM acetate buffer pH 5.0 and immobilized on the surface of a CM5 sensor chip (GE Healthcare 29149604) using standard amine coupling chemistry. The designs and rhG-CSF (USP RS Filgrastim, Sigma-Aldrich 1270435) were diluted in running buffer (10 mM HEPES, 150 mM NaCl, 3.4 mM EDTA, 0.005% v/v Tween-20). Analyses were conducted at 25° C. at a flow rate of 30 μl/min. Five sequential 10-fold increasing concentrations of the sample solution (for the designs from 0.5 nM to 50 μM, and for rhG-CSF from 0.05 to 500 nM) were injected over the functionalized sensor chip surface for 180 s, followed by a 180 s dissociation with running buffer. At the end of each run, the sensor surface was regenerated with a 240 s injection of 10 mM glycine-HCl pH 2.0. Each experiment was performed two times for rhG-CSF, Boskar3, Boskar4, diSohair2, Moevan, and Moevan_t2. Association rate (ka), dissociation rate (kd), and equilibrium dissociation (Kd) constants were initially obtained by global fitting of the experimental reference-subtracted data to a 1:1 interaction model using the Biacore X100 evaluation software (v.2.0.1). To evaluate if a kinetics model that depends on double the analyte stoichiometry improves the goodness of fit to the data, the following rate integral was used: […]

[4] = molecular target: T2, G-CSF Receptor (G-CSFR) (R&D systems …); test: SPR (Biacore), G-CSFR immobilised on the chip, Moevan_t2 2 nM - 32 nM as analyte, five traces with binding model fit [panel E]
[5] = molecular target: T2, G-CSF Receptor (G-CSFR) (R&D systems …); test: SPR (Biacore), G-CSFR immobilised on the chip, diSohair2 250 nM - 4000 nM as analyte, five traces with binding model fit [panel B]

Row | Binder | NFS-60 EC50 (ng/mL), proliferation of NFS-60 cells [1] [ng/mL] | NFS-60 EC50 (ng/mL), proliferation of NFS-60 cells [2] [ng/mL] | further results
1 | B1 | 228 | – | –
2 | B2 | – | 3220 | –
3 | B3 | 47.1 | – | Kd [3]: 1.1 nM; koff [3]: 0.0003 s⁻¹; kon [3]: 310000 M⁻¹ s⁻¹; Kd [4]: 1.2 nM; koff [4]: 0.00036 s⁻¹; kon [4]: 300000 M⁻¹ s⁻¹
4 | B4 | – | 2170 | –
5 | B5 | – | 5050 | –
6 | B6 | – | 2380 | –
7 | B7 | – | 396 | Kd [3]: 4500 nM; koff [3]: 0.0095 s⁻¹; kon [3]: 2100 M⁻¹ s⁻¹; Kd [5]: 4.55 µM; koff [5]: 0.00949 s⁻¹; kon [5]: 2080 M⁻¹ s⁻¹
8 | B8 | 4.2 | – | –
9 | B9 | 63 | – | –
10 | B10 | 98 | – | –
11 | B11 | 48.5 | – | –
12 | B12 | 8.89 | – | –
13 | B13 | 0.202 | – | –
